The source of these data is PMC7108872 (Nature structural & molecular biology, 2019).

For the assay, the target named is bovine β-arrestin 1 (1–393) (bovine, UniProt P17870). The experiment in a line: cryo-EM structure.
Sequence of bovine β-arrestin 1 (1–393) (P17870 1-393): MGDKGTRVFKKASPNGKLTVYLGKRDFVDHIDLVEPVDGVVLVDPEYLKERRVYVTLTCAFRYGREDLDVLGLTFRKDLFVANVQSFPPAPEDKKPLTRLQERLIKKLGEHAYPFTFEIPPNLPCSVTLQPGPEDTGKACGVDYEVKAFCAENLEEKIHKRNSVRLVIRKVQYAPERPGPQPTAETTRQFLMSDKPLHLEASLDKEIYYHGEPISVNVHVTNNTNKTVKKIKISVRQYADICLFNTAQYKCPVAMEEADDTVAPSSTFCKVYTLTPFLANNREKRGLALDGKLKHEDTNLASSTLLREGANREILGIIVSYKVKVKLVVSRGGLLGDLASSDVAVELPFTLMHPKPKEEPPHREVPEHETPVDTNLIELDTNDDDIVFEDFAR

B1: Nanobody 32 (VHH)
VHH: QVQLQESGGGLVQAGGSLRLSCVVSGFFFDTVTMAWYRRAPGKHRELVASATAGGTTTYADSVKDRFTISRDNAKNTVYLQMNSLKPEDTAVYYCNTFVRSLSWGQGTQVTVSS
As for B1, the binding result is listed as “binds”.
